US20230407373A1 (priority 2020, published 2023)
Read-outs that look alike come from different tables or passages of the source.

B1: SND1: host protein, UniProt Q7KZF4 (protein, UniProt Q7KZF4 2-910, looked up)
Staphylococcal nuclease …: ASSAQSGGSSGGPAVPTVQRGIIKMVLSGCAIIVRGQPRGGPPPERQINLSNIRAGNLARRAAATQPDAKDTPDEPWAFPAREFLRKKLIGKEVCFTIENKTPQGREYGMIYLGKDTNGENIAESLVAEGLATRREGMRANNPEQNRLSECEEQAKAAKKGMWSEGNGSHTIRDLKYTIENPRHFVDSHHQKPVNAIIEHVRDGSVVRALLLPDYYLVTVMLSGIKCPTFRREADGSETPEPFAAEAKFFTESRLLQRDVQIILESCHNQNILGTILHPNGNITELLLKEGFARCVDWSIAVYTRGAEKLRAAERFAKERRLRIWRDYVAPTANLDQKDKQFVAKVMQVLNADAIVVKLNSGDYKTIHLSSIRPPRLEGENTQDKNKKLRPLYDIPYMFEAREFLRKKLIGKKVNVTVDYIRPASPATETVPAFSERTCATVTIGGINIAEALVSKGLATVIRYRQDDDQRSSHYDELLAAEARAIKNGKGLHSKKEVPIHRVADISGDTQKAKQFLPFLQRAGRSEAVVEYVFSGSRLKLYLPKETCLITFLLAGIECPRGARNLPGLVQEGEPFSEEATLFTKELVLQREVEVEVESMDKAGNFIGWLHIDGANLSVLLVEHALSKVHFTAERSSYYKSLLSAEEAAKQKKEKVWAHYEEQPVEEVMPVLEEKERSASYKPVFVTEITDDLHFYVQDVETGTQLEKLMENMRNDIASHPPVEGSYAPRRGEFCIAKFVDGEWYRARVEKVESPAKIHVFYIDYGNREVLPSTRLGTLSPAFSTRVLPAQATEYAFAFIQVPQDDDARTDAVDSVVRDIQNTQCLLNVEHLSAGCPHVTLQFADSKGDVGLGLVKEGLVMVEVRKEKQFQKVITEYLNAQESAKSARLNLWRYGDFRADDADEFGYSR
B2: DDX17 (protein, UniProt Q92841 1-729, looked up)
Probable ATP-dependent RNA …: MPTGFVAPILCVLLPSPTREAATVASATGDSASERESAAPAAAPTAEAPPPSVVTRPEPQALPSPAIRAPLPDLYPFGTMRGGGFGDRDRDRDRGGFGARGGGGLPPKKFGNPGERLRKKKWDLSELPKFEKNFYVEHPEVARLTPYEVDELRRKKEITVRGGDVCPKPVFAFHHANFPQYVMDVLMDQHFTEPTPIQCQGFPLALSGRDMVGIAQTGSGKTLAYLLPAIVHINHQPYLERGDGPICLVLAPTRELAQQVQQVADDYGKCSRLKSTCIYGGAPKGPQIRDLERGVEICIATPGRLIDFLESGKTNLRRCTYLVLDEADRMLDMGFEPQIRKIVDQIRPDRQTLMWSATWPKEVRQLAEDFLRDYTQINVGNLELSANHNILQIVDVCMESEKDHKLIQLMEEIMAEKENKTIIFVETKRRCDDLTRRMRRDGWPAMCIHGDKSQPERDWVLNEFRSGKAPILIATDVASRGLDVEDVKFVINYDYPNSSEDYVHRIGRTARSTNKGTAYTFFTPGNLKQARELIKVLEEANQAINPKLMQLVDHRGGGGGGGGRSRYRTTSSANNPNLMYQDECDRRLRGVKDGGRRDSASYRDRSETDRAGYANGSGYGSPNSAFGAQAGQYTYGQGTYGAAAYGTSSYTAQEYGAGTYGASSTTSTGRSSQSSSQQFSGIGRSGQQPQPLMSQQFAQPPGATNMIGYMGQTAYQYPPPPPPPPPSRK
B3: LRRC47: host protein, UniProt Q8N1G4 (protein, UniProt Q8N1G4 2-583, looked up)
Leucine-rich …: AAAAVSESWPELELAERERRRELLLTGPGLEERVRAAGGQLPPRLFTLPLLHYLEVSGCGSLRAPGPGLAQGLPQLHSLVLRRNALGPGLSPELGPLPALRVLDLSGNALEALPPGQGLGPAEPPGLPQLQSLNLSGNRLRELPADLARCAPRLQSLNLTGNCLDSFPAELFRPGALPLLSELAAADNCLRELSPDIAHLASLKTLDLSNNQLSEIPAELADCPKLKEINFRGNKLRDKRLEKMVSGCQTRSILEYLRVGGRGGGKGKGRAEGSEKEESRRKRRERKQRREGGDGEEQDVGDAGRLLLRVLHVSENPVPLTVRVSPEVRDVRPYIVGAVVRGMDLQPGNALKRFLTSQTKLHEDLCEKRTAATLATHELRAVKGPLLYCARPPQDLKIVPLGRKEAKAKELVRQLQLEAEEQRKQKKRQSVSGLHRYLHLLDGNENYPCLVDADGDVISFPPITNSEKTKVKKTTSDLFLEVTSATSLQICKDVMDALILKMAEMKKYTLENKEEGSLSDTEADAVSGQLPDPTTNPSAGKDGPSLLVVEQVRVVDLEGSLKVVYPSKADLATAPPHVTVVR
B4: SRSF7 (protein, UniProt Q16629 1-238, looked up)
Serine/arginine-rich splicing …: MSRYGRYGGETKVYVGNLGTGAGKGELERAFSYYGPLRTVWIARNPPGFAFVEFEDPRDAEDAVRGLDGKVICGSRVRVELSTGMPRRSRFDRPPARRPFDPNDRCYECGEKGHYAYDCHRYSRRRRSRSRSRSHSRSRGRRYSRSRSRSRGRRSRSASPRRSRSISLRRSRSASLRRSRSGSIKGSRYFQSPSRSRSRSRSISRPRSSRSKSRSPSPKRSRSPSGSPRRSASPERMD
B5: RALY: host protein, UniProt Q9UKM9 (protein, UniProt Q9UKM9 2-306, looked up)
RNA-binding protein Raly: SLKLQASNVTNKNDPKSINSRVFIGNLNTALVKKSDVETIFSKYGRVAGCSVHKGYAFVQYSNERHARAAVLGENGRVLAGQTLDINMAGEPKPDRPKGLKRAASAIYSGYIFDYDYYRDDFYDRLFDYRGRLSPVPVPRAVPVKRPRVTVPLVRRVKTNVPVKLFARSTAVTTSSAKIKLKSSELQAIKTELTQIKSNIDALLSRLEQIAAEQKANPDGKKKGDGGGAGGGGGGGGSGGGGSGGGGGGGSSRPPAPQENTTSEAGLPQGEARTRDDGDEEGLLTHSEEELEHSQDTDADDGALQ
B6: PABPC4: host protein, UniProt Q13310 (protein, UniProt Q13310 1-644, looked up)
Polyadenylate-binding protein …: MNAAASSYPMASLYVGDLHSDVTEAMLYEKFSPAGPVLSIRVCRDMITRRSLGYAYVNFQQPADAERALDTMNFDVIKGKPIRIMWSQRDPSLRKSGVGNVFIKNLDKSIDNKALYDTFSAFGNILSCKVVCDENGSKGYAFVHFETQEAADKAIEKMNGMLLNDRKVFVGRFKSRKEREAELGAKAKEFTNVYIKNFGEEVDDESLKELFSQFGKTLSVKVMRDPNGKSKGFGFVSYEKHEDANKAVEEMNGKEISGKIIFVGRAQKKVERQAELKRKFEQLKQERISRYQGVNLYIKNLDDTIDDEKLRKEFSPFGSITSAKVMLEDGRSKGFGFVCFSSPEEATKAVTEMNGRIVGSKPLYVALAQRKEERKAHLTNQYMQRVAGMRALPANAILNQFQPAAGGYFVPAVPQAQGRPPYYTPNQLAQMRPNPRWQQGGRPQGFQGMPSAIRQSGPRPTLRHLAPTGSECPDRLAMDFGGAGAAQQGLTDSCQSGGVPTAVQNLAPRAAVAAAAPRAVAPYKYASSVRSPHPAIQPLQAPQPAVHVQGQEPLTASMLAAAPPQEQKQMLGERLFPLIQTMHSNLAGKITGMLLEIDNSELLHMLESPESLRSKVDEAVAVLQAHHAKKEAAQKVGAVAAATS

Columns and labels:
Type in all cases: binding
[1] = system: gRNA of HCoV-OC43; conditions: for target (spectral count) / background (spectral count): type g_36_m, 36 hpi, Probe I; for target (spectral count): HCoV-OC43-infected HCT-8 cells; for background (spectral count): uninfected-probe control; for target (spectral count, OC43 Probe I RNP capture) / background (spectral count, no-probe control): type n_48_v: 48 hours post-infection; for target (spectral count, OC43 Probe I RNP capture): infected cells, unweighted spectral count; for background (spectral count, no-probe control): no-probe control on infected cells
[2] = system: SARS-CoV-2 gRNA; conditions: for target (unweighted spectral count of the protein in the RNP capture): LC-MS/MS, Probe I sample (first 199 lines of Table 2)
[3] = system: SARS-CoV-2 gRNA and sgRNAs; conditions: for background (unweighted spectral count in control): no-probe control pull-down, used as background for Probe II; for target (unweighted spectral count in RNP capture): Probe II capture, LC-MS/MS LFQ
[4] = system: HCoV-OC43 gRNA and sgRNA; conditions: for target (spectral count) / background (spectral count): type s_36_m, Probe II; for target (spectral count): HCoV-OC43-infected HCT-8 cells; for background (spectral count): uninfected-probe control
[5] = 36 hpi, type n_36_v, tested against no-probe control, FDR<10%
[6] = OC43 Probe II, 12 hpi (type n_12_v), infected cells, tested against no-probe control
[7] = OC43 Probe II, 24 hpi (type n_24_v), infected cells, tested against no-probe control
[8] = type n_48_v, 48 hpi, OC43 Probe II capture on infected cells
[9] = type n_48_v, 48 hpi, no-probe control on infected cells

Molecule | target (spectral count) [1] | background (spectral count) [1] | target (spectral count, OC43 Probe I RNP capture) [1] | background (spectral count, no-probe control) [1] | enrichment in SARS-CoV-2 Probe I RNP capture [2] | target (unweighted spectral count of the protein in the RNP capture) [2] | enrichment in SARS-CoV-2 Probe II RNP capture [3] | background (unweighted spectral count in control) [3] | target (unweighted spectral count, OC43 Probe II capture) [4, 5] | target (unweighted spectral count) [4, 6] | target (unweighted spectral count) [4, 7] | target (unweighted spectral count, OC43 Probe II) [4, 8] | background (unweighted spectral count, no-probe control) [4, 9] | target (spectral count) ([4]; 36 hpi) | background (spectral count) ([4]; 36 hpi) | target (unweighted spectral count in RNP capture) [3] | other results
B1 | 16 | 3 | 25 | 6 | found in the SARS-CoV-2 experiments | 16 | found in the SARS-CoV-2 experiments | 1 | 57 | 27 | 37 | 84 | 6 | 57 | 1 |  | 
B2 |  |  |  |  |  | 24 |  | 1 | 17 |  | 9 |  |  |  |  | 15 | 
B3 |  |  |  |  |  | 14 |  | 1 |  |  |  |  |  | 7 | 1 | 13 | target (unweighted spectral count, OC43 Probe II capture) ([4]; 24 hpi, type n_24_v, tested against no-probe control, FDR<10%): 4
B4 |  |  |  |  |  | 21 |  | 1 |  |  |  |  |  |  |  | 16 | background (unweighted spectral count, no-probe control) [4]: 4; target (unweighted spectral count) [4]: 5; target (unweighted spectral count, OC43 Probe II capture) [4]: 14; target (unweighted spectral count, OC43 Probe II) [4]: 19
B5 | 28 | 3 | 31 | 2 | found in the SARS-CoV-2 experiments | 33 | found in the SARS-CoV-2 experiments | 1 | 23 | 4 | 14 | 24 | 2 | 23 | 2 | 28 | 
B6 | 12 | 2 | 11 | 1 | found in the SARS-CoV-2 experiments |  | found in the SARS-CoV-2 experiments |  | 11 |  | 6 | 11 | 1 | 11 | 1 |  | 
